# Measured values taken from PMC6111841.
# Values joined by “and” are separate entries in the source; they are usually repeats but may differ in a detail not shown here. Equal entries are not always repeated.
# Key:
# [1] = target: HelD (Bacillus subtilis) (UniProt O32215); experiment: SEC; Superdex 200 Increase 10/300 GL, Buffer A (20 mM HEPES pH 7.5, 150 mM NaCl), 500 uL purified protein, 0.5 mL/min, 4 °C
# [2] = target: HelD (Bacillus subtilis) (UniProt O32215); experiment: AUC; sedimentation velocity, HelD 5 uM in Buffer A (20 mM HEPES pH 7.5, 150 mM NaCl), 40,000 rpm, 4 °C, c(s) model in SEDFIT
# Sequence of HelD (O32215 whole entry): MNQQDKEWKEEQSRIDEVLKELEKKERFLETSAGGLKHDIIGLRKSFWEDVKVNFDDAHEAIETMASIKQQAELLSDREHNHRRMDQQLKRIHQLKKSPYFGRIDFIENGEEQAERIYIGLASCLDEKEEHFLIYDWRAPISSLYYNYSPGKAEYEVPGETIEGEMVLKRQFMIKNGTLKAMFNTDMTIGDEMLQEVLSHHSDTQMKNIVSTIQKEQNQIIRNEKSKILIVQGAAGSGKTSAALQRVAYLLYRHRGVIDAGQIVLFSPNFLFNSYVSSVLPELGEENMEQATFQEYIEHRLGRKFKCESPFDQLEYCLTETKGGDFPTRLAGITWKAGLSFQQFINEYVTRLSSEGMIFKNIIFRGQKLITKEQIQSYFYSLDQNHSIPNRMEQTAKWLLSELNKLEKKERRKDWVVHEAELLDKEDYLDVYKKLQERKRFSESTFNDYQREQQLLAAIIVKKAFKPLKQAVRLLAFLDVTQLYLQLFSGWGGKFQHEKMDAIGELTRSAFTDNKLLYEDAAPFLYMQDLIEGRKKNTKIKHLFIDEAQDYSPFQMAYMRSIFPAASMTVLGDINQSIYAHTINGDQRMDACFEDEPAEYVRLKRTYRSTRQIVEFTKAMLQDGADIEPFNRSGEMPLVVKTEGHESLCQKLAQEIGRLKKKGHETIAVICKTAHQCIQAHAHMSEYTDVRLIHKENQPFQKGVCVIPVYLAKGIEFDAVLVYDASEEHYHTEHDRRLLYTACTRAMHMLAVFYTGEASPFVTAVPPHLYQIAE
substance,measurement,setting,value
HelD (from UniProt O32215 1-774) (natural protein),stoichiometry N,[1],2 and 3
same,population of higher order oligomers,[2],20%
